Target: recombinant protein A/G (Pierce)
Test: plasmonic metamaterial refractive-index sensing (resonance wavelength shift, reflection probe); protein A/G (500 ug/mL in PBS, 45 min) physisorbed on gold nanodiscs of the sensor, washed 30 min with PBS; IgG 50 ug/mL applied in a microfluidic cell, plateau after 45 min, washed 30 min with …; reflection read at 1 min intervals

Substance: antimouse IgG (labeled with FITC) produced in goat (F5262, Sigma-Aldrich) (antibody)
- resonance wavelength shift: 2 nm
